{"source": "patent US20170198040A1", "about": "(Novartis, published 2017)", "key": {"[1]": {"molecular_target": "T1, WT human CD32b1 expressed on stably transfected cells (human, UniProt P31994 43-310)", "T1 construct": "also called huCD32b; WT CD32b", "T1 sequence": "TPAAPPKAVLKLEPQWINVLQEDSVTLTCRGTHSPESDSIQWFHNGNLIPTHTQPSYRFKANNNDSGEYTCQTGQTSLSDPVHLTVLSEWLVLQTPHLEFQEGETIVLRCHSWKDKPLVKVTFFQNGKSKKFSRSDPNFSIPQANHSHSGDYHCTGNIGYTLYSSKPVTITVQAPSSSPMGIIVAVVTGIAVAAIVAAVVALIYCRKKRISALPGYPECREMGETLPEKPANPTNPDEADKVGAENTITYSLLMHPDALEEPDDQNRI", "test": "flow cytometry on stable CHO cells expressing huCD32b (MW83); hIgG1 [N297A] antibody, GMFI", "description": "(§1) HuCD32b and huCD32a have high degree of sequence homology. […] CHO cells were collected following detachment with PBS containing 2 mM EDTA and pelleted. Cell pellets were washed once in PBS and suspended in FACS Buffer (PBS1× containing 2% BSA, 2 mM EDTA and 0.1% NaN3), counted and suspended at 0.25×10⁶ cells per ml. 50'000 cells/well (200 μl) were then dispensed in V-bottomed 96 well plates. Plates were spun for 5 min at 1600 rpm and the supernatant discarded. […] After 3 successive washes with FACS buffer, cells were suspended in 50 μl FACS buffer containing a 1/100 dilution of the F(ab′)2 anti-human F(ab′)2-PE (Jackson Immunoresearch#109-116-097) and further incubated 30 min at 4° C. Cells were washed twice and suspended in 200 μl FACS buffer and acquired on a FACS Canto II (acquisition of 5000 cells in the live cell gate). The Geometric Mean Fluorescence (GMFI in the PE channel) was used as a measure of the binding intensity of each antibody."}, "[2]": {"molecular_target": "T2, huCD64 (Fc gamma RI) expressed on stable CHO cells (human, UniProt P12314 16-374)", "T2 construct": "whole, on cells; also called CHO-huCD64", "T2 sequence (P12314 16-374)": "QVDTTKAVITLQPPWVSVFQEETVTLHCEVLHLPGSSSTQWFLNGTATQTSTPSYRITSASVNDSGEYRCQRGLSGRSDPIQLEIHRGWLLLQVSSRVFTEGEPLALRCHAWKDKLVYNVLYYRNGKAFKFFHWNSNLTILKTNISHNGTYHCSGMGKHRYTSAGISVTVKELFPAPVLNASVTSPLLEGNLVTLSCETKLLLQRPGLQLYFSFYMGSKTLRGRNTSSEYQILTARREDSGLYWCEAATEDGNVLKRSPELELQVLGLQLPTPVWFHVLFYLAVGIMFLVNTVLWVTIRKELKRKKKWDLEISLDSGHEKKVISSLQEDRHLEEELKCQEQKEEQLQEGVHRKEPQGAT", "test": "flow cytometry on stable CHO cells expressing huCD64; hIgG1 [N297A] antibody, GMFI; the text ascribes this binding to the Fc portion", "description": "The binding of huCD32b specific antibodies was evaluated by flow cytometry using stable CHO cell lines expressing the low affinity human CD16 variants (i.e huCD16a or huCD16b variants) and the high affinity huCD64 (FcγRI). CHO cells transfected with huCD16a variants were also transfected with the common Fcγ chain in order to allow for surface expression. CHO cells were collected following detachment with PBS containing 2 mM EDTA and pelleted. Cell pellets were washed once in PBS and suspended in FACS Buffer (PBS1× containing 2% BSA, 2 mM EDTA and 0.1% NaN3), counted and suspended at 0.25×10⁶ cells per ml. 50'000 cells/well (200 μl) were then dispensed in V-bottomed 96 well plates. Plates were spun for 5 min at 1600 rpm and the supernatant discarded. […] After 3 successive washes with FACS buffer, cells were suspended in 50 μl FACS buffer containing a 1/100 dilution of the F(ab′)2 anti-human F(ab′)2-PE (Jackson Immunoresearch#109-116-097) and further incubated 30 min at 4° C. Cells were washed twice and suspended in 200 μl FACS buffer and acquired on a FACS Canto II (acquisition of 5000 cells in the live cell gate). The Geometric Mean Fluorescence (GMFI in the PE channel) was used as a measure of the binding intensity of each antibody."}, "MW82 (huCD32a H131)": {"molecular_target": "T3, MW82 (huCD32a H131) (human, UniProt P12318)", "T3 sequence (receptor, looked up)": "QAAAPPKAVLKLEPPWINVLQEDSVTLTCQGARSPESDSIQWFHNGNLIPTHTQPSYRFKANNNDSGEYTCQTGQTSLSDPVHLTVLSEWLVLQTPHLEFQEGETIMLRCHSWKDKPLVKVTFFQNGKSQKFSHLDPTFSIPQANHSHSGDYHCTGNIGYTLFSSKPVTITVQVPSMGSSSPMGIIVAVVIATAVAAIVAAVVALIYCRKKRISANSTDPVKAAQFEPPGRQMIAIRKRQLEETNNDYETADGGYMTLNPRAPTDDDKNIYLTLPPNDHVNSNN", "test": "flow cytometry on stable CHO cells expressing huCD32a H131 (MW82); hIgG1 [N297A] antibody, GMFI", "description": "as §1"}, "[3]": {"molecular_target": "T4, human CD32b expressed endogenously on human cells (human, UniProt P31994 43-310)", "T4 construct": "whole, on cells; The background says that CD32b1 is the form on lymphoid cells and CD32b2 the form on myeloid cells; also called CD32b on primary human B cells, plasma cells, macrophages, BJAB, KARPAS422 and Daudi cells", "T4 sequence (looked up)": "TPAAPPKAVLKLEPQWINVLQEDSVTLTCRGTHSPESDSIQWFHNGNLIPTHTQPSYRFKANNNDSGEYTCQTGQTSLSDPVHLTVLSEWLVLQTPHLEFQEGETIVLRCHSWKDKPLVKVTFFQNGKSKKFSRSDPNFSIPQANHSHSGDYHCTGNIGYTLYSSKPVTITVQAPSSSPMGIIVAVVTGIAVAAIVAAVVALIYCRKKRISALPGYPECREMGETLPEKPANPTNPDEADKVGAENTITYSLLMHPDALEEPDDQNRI", "test": "flow cytometry on BJAB cells; biotinylated hIgG1 [N297A] antibody, streptavidin-PE, GMFI", "description": "The binding of huCD32b specific antibodies to the BJAB cell line was evaluated by flow cytometry. BJAB cells were collected and suspended in FACS Buffer (PBS1× containing 2% BSA, 2 mM EDTA), counted and suspended at 0.25×10⁶ cells per ml. 50'000 cells/well (200 μl) were then dispensed in V-bottomed 96 well plates. Plates were spun for 5 min at 1500 rpm and the supernatant discarded. […] Biotinylation of antibodies was performed using the Lightning-Link biotin conjugation kit (Type A) from Innova Biosciences (Cat. No 704-0010) according to the supplier's instructions. After 2 successive washes with FACS buffer, cells were suspended in 50 μl FACS buffer containing a 1/500 dilution of Streptavidin-PE (Invitrogen 521388) and further incubated for 20 min at 4° C. Cells were washed twice and suspended in 200 μl FACS buffer and acquired on a FACS Fortessa. The Geometric Mean Fluorescence (GMFI in the PE channel) was used as a measure of the binding intensity of each antibody."}}}
{"binder": "NOV1219 (antibody, human IgG1, lambda, N297A, also called NOV1219_N297A; NOV1219 on a human IgG1 [N297A] scaffold) heavy chain: not shown light chain: SYELTQPLSVSVALGQTARITCSGDALGKNTVSWYQQKPGQAPVLVIYDDTDRPSGIPERFSGSNSGNTATLTISRAQAGDEADYYCSSTDLSTVVFGGGTKLTVLGQPKAAPSVTLFPPSSEELQANKATLVCLISDFYPGAVTVAWKADSSPVKAGVETTTPSKQSNNKYAASSYLSLTPEQWKSHRSYSCQVTHEGSTVEKTVAPTECS", "values": [{"measurement": "EC50 (read off the curve)", "setting": "[1]", "value": "~0.03", "unit": "µM"}, {"measurement": "binding result", "setting": "[2]", "value": "binds"}, {"measurement": "binding result", "setting": "MW82 (huCD32a H131)", "value": "no binding (tested: 1000 nM)"}, {"measurement": "binding affinity (printed 'BJABs:')", "setting": "[3]", "value": 110, "unit": "nM"}]}
